Common to all, as to test: crystal structure
The target in series [1] is T1, AddA (nuclease-dead);AddB (nuclease-dead) (Bacillus subtilis?;Bacillus subtilis?, UniProt P23478;P23477 1-1232;1-1166, D1172A|D961A).
Series [2] deals with T2, AddA subunit of the nuclease-dead AddAB mutant (AddA D1172A) (UniProt P23478 1-1232, D1172A).
T2 sequence: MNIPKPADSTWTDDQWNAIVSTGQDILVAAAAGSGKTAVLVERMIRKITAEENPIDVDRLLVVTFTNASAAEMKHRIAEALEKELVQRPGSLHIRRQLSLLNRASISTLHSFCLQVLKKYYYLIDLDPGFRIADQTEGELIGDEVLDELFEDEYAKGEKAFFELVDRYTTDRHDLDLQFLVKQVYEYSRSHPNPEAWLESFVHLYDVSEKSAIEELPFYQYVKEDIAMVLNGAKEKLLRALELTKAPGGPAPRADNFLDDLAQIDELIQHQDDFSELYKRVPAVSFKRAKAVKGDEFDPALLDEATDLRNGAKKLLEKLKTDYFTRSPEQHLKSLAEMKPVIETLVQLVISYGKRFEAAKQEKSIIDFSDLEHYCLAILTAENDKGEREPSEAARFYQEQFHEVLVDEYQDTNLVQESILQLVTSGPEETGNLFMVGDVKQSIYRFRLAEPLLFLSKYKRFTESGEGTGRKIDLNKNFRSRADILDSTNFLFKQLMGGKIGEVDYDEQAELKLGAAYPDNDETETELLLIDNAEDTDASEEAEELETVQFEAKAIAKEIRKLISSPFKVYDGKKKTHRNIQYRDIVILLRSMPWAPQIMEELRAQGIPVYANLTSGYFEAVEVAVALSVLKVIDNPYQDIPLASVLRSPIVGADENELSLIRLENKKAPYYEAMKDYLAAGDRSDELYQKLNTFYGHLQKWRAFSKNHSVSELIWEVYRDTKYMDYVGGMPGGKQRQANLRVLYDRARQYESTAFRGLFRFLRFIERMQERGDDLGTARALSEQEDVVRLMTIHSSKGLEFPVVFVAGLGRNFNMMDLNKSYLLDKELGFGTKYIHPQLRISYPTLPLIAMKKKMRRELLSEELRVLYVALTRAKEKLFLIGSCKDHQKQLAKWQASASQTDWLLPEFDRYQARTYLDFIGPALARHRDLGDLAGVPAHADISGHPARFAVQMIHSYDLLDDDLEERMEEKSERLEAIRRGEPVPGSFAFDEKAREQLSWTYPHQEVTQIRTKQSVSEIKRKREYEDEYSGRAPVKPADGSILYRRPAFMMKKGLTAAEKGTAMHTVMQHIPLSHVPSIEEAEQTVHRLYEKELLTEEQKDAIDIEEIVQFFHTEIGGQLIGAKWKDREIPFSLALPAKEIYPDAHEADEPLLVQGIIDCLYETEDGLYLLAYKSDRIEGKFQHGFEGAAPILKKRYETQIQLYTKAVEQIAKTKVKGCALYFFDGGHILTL

In series [3] the target is T1, AddA (nuclease-dead);AddB …. This is another data set of the same source.

Read-outs that look alike come from different tables or passages of the source.

B1: oligo 023 (Chi, 6 T spacer) (structured_DNA)
DNA: TTTTTTTCTAATGCGAGCACTGCTATTCCCTAGCAGTGCTCGCATTAGATTTTGTTTTTTAGCGG
With B1, the binding result in series [1] is on record as “binds”.

B2: AddB subunit of the nuclease-dead AddAB mutant (AddB D961A) (enzyme)
chain: MGAEFLVGRSGSGKTKLIINSIQDELRRAPFGKPIIFLVPDQMTFLMEYELAKTPDMGGMIRAQVFSFSRLAWRVLQHTGGMSRPFLTSTGVQMLLRKLIEEHKQEFKVYQKASDKSGFTAQVERMLTEFKRYCLEPEDIRRMAESGTASEYRGERVLSEKLHDLSILYQQMEKSLADQYLHSEDYLTLLAEHIPLAEDIKGAHIYVDGFYQFTPQEFRVLEQLMVHAEHITFSLTADKPSYEREPHELELFRMTGKTYYRLHQKAKELNLDITYKELSGTERHTKTPELAHLEAQYEARPAIPYAEKQEALTVMQAANRRAELEGIAREIHALVREKGYRYKDVAILARQPEDYKDMVKEVFADYEIPYFIDGKASMLNHPLIEFIRSSLDVLKGNWRYEAVFRCVKTELLFPLNEPKAKVREQVDQLENYCIAYGIKGDRWTKGDRFQYRRFVSLDDDFAQTDQEIEMENMLNDTRDWIVPPLFQLQKRMKKAKTVQEKAEALYRYLEETDVPLKLDQERQRAEDDGRIIEAQQHQQAWDAVIQLLEEFVEMMGDDEISLDLFQQMIEAGAESLTFSLIPPALDQVFVGNMDLSRMYGTSCTFVLGANDGVLPARPDENGVLSDDDREWLKTIGVELSSGGRERLLDEHFLIYMAFSSPSDRLYVSYPIADAEGKTLLPSMIVKRLEELFPHHKERLLTNEPEQVSDEEQLMYVVNKSVAQSFTASQLRLWTREYDISDVWWSTYNVLMSEQDRLQSKKLFSSLFFRNEVKQLERSVSRQLYGERIQGSVSRMETFNACPFSHFASHGLHLKERQFFKLEAPDIGQLFHSSLKLISDRLREQKLDWRDLTKEQCELFSYDAVERLAPKLQKEILLSSNRHYYVKEKLQKIVTRVSGILSEHAKASGFVPIGLELGFGGKGPLPPLTFQLKNGCTMELVGRIDRVDKAESSKGLLLRIVAYKSSDKGLDLAEVYYGLALQMLTYLDLSITHSADWLGMRATPAGVLYFHIHDPMIQSNLPLGLDEIEQEIFKKFKMKGLLLGDQEVVRLMDTTLQEGRSNIINAGLKKDGSLRSDSAAVGEKEFDLLTKHVRRTFQEAGEQITDGRVSIEPYKMKNKTPCTYCAFKSVCQFDESLEENEYRPLKAEKDKTILEWIKKEADGNEHS
As for B2, the binding result in series [2] is given as “binds”.

B3: oligo 027 (Chi, 7 T spacer, TTTT 3' extension) (structured_DNA)
DNA: TTTTTTTCTAATGCGAGCACTGCTATTCCCTAGCAGTGCTCGCATTAGATTTTGTTTTTTTAGCGGTTTT
On to B3, for which the binding result in series [3] was “binds”.

Values taken from paper PMC3991583 (Nature, 2014).
